In the domain aggregation screens of Martell et al. (2025):

Assay: soluble fraction after stress (log2 fold change); higher = more stays soluble; pooled small domains, quantitative proteomics
Conditions: stress: 75 degC
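Also: 20 min heating vs room temperature control held 20 min.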

Sequence	soluble fraction (log2)
HMGAGEQMLPKVMFAEGDRVVHKVFGEGTVVTVDRPAQTYDIQFDKLRGTRRIMFRAELEGI	-0.693
HMSNMESLIGREATVIEMIPAEDVGRVKIDGDEWQAVLAREDDNEPRRDIQVGEKVIIVSYDSIILTVKTK	0.0742
HMQNVFARKNLTSVSVDKLGEEEILLFKQSFESKNLTSSEALRDLSKKGMSEAELRKLKVRLTQL	-0.287
HMAISSADRIVAELRTWISGASPGTQLPSSRTLAARYGASPVTVQKALHTLAGMGLVEARPGAGTFVRRQS	-1.42
HMDFMNSEIKKIVEDLKLTLQSLNYTKNEIKSILPVINKETDNLIKKEKYASFENLLRLAMNHLDNN	-0.751
HMKNTLDAYIRYLSNFLSRNNYPEAEDLSFINARADQAYEVFLEARRGGVDVSTAEELAMIALMQGY	-2.34
HMRYQIAEARKLRDITQAELAEKMGTTQQTIQRYETNQVNIRMDKMIEMSEILNVSLAYLLGMSSSPEL	-1.78
HMTMLLEYNVSRSSKWMNKTIMDAEIPDDILIVMIKRNGQVIVPKGSTEILENDILVLSGNNLNEVALG	-3.02
HMENVALYIRLKSMASVYDDVHGYNIEWIKSMIGLSIDIEKLRTVLEDVSWITKVEEDVYSFSKNAKPFE	-4.31
HMKQISNTDELESMAKNIIQENPDQVSKFKNGNEKLFGWFVGQMMKSTGGTANPKVVNEILKNLLN	0.134
HMIERLVEFVHTLRHSGVRVSMAEAMDAAEALRHTPITERQIFKTALQSVLVKEHQDIPAFDAAFERFFL	-3.04
HMGDFVIVPDLIGKTIEEFDSELNELNLKYIISDSGNYNPDFKINSVLDQLPNANSKVKGGRKIYITLNAS	-1.05
HMASALDVALNDFAEMRKKMRKPLTDRALALTLSELEKLAPGNDEKKIAILNQSIQRGWQGVFPLK	-0.336
HMNPFTHEEINLMSIYNAAGTREGLIAALTEMWGYLDAEETELRELADSALAKLRGITDAEYAALELE	-1.19
HMTNVLSEQESKLLERMNKAGLNAEITVKKAAQILNLSESAARNVLNRLVGKGYLTVDTSRLPFLFQR	-0.277
HMAVSSHAVKQRIRSLIQAEDPAAPLSDEALRLALSALGVDVSRRVIAKYRAELNIPSSSQRKK	-0.823
HMTEIILTARSGRHAVRHRLEGLGYTLTPEELERVHQRFLAVADAKKEVFDEDLHALMADERGT	-0.219
HMLERPLFTPEQYGRFRGKEARIRLSNPVEGRKTLTGSIVEATEERIVVFVEEEEREVTVPFQWIKSGNL	-0.544
HMEFNQAVQDVNELSMQYAKSDVLWPEFEPKVLAFAKNELSQMPPNQWKFALQTFYNGLKQAA	-0.576
HMEQIPEEYKKIYSLITDIPININDIAKKSLLELREVSSKLTMLELDGKVVKLPGNMYIRGDL	-0.195
HMEANPLTDREKEVLELVADGKNTKEIAQELSIKSGTVRNYISMILEKLEVKNRIEAITRSKEKGWF	-0.161
HMPTMVAQINEIVQAKLPGSGLKDYTIRLVESQRDGVVVWVNGTRYLGVDEVAEPQVQALLKEAVAEWERS	-0.462
HMKHEFSEEWLDWIKSNIADGQNKNGLFKVLLNHGYAYDAVREVMQYEPTVPLDELVDPLRA	-0.143
HMVENMDEFIGRVRRLVSDRLDLLKEASDDEIRETISQVVLELSREQFLTLNEKKTVLEGVFNSMR	-0.944
HMLDYKSALQELLQAQRRSRPRYEVISTEGPDHERVFEVAVWLDNEELGRGKGRSKREAEHQAAQAALTQL	-0.115
HMKRREENLRRLALSTAERVKRKGKKEILNPMSPQERRIIHLTLQNNKEVVTHSEGEDPYRRVIISPRN	-0.397

Sequence	soluble fraction (log2)
HMADTSLDHLGVLVRHASDVDAWAEFFENRGVTLASQPRTHRDGARSFYVDDPDGNRVQVIYHPPI	-0.779
HMGEPLSPDARALTNVLRHYRGWAEPGELARKSGLGSRERVLTAAQSLVNAGLADIERGMVRPTAALMEVQ	0.0619
HMKSAYADVAIAKVQDYVNVRAENNEDSEVLGKLYNNSAATVLETTDDGWYKISSGSVTGYVKSEYVVVG	-0.111
HMGIRDIHITVNGESLKLSKKQNYIFVDIFDFYPFDLSILGGSKLITTINGEQAEFTSPLKDGDVVELYWK	-2.25
HMGVDIAEHDGQPAVSIRKGAAESVAQWVKDQGGTFPQEVEMTVQNVARAGGTPLVVARGRDVLGVIYLKD	-0.0119
HMTTQVNTVKIQLANGYEMTVLTSKTNVKEILEDNNIILENNEKVTPNIDEEISSNKTIKITDKSN	0.055
HMGMESFWNRVANLLNTSTVVELAQILDVKRSTLSSWIHSDRRPPMEVLLKITRLTGVDIHRLE	-2.59
HMVISAKRMQDRRDSILDAAREAFARAGFEGTSIADIARRAGVSDGLVYRYFASKRDLLNAVLTA	-1.61
HMPQIDLYPFEVRIEQDNNAAEYAVRFLDVPNIIGSGASIDEAIVEARGNLKEYLDYLIDTNRDIPLPS	-0.339
HMISDQENDLNLKHLFDTADQNKDGLILESELKMLMTNLEINKETYDTVMKQITPAGMDYKTFSSL	0.293
HMAIDINKIYSEIKKKIPNQDNHIKEILSIIWRDFNNYQNIKSRSILINGEKSSPKKEIFNIIEDNINIPV	0.0633
HMKQENRLKILRKEKGLTQTKLANEIGVSKRTIIAWENDERQIKPDKAQQLADYFGVKEGYLLGYTNN	0.114
HMNSISDSELKALIKNNYLKFLKRIASDEEIEYHFNQIKNKTILLDELDSIFQNSQEYKDLVEHNNKIQN	-0.268
HMGLAGVQSDVKVSFDGDLLVVTSDIARSFNLFAVDGRLIRSVNLIAGRNEIRGLERGFYLAEKQKIFV	-1.93
HMEGVNLTVQEAKQMAAIIAPLLKQGQSPYQIVTNHPELGISEKTLYNYIENDVFHEIAGITVMDL	-0.819
HMAKIATTVYEQIRTAILNGELSNSERLVEEDLAVSMGISRTPVREALRRLAAEGLVDVSPNRGARVAE	-0.27
HMFPELNAEETQVVQLLQKQTEGMQVNSLVVESNIPITRMSGILFELELKGIIRNYAGGVYKL	-3.2
HMNNLVTRREVEILGWIKEGKTTSDIAGILSLSPFTVKNHVQNILKKLGARSRSHAVAQAINLGLLH	-1.4
HMQRNLILKLDTDQPEIYKKLESIFVEINGLLVPFFIEKIIWSKQDSLNILFKNSSEALVEQLIGKNVFLP	0.2
HMATKVSSGATVRDVADLLGLSSAELIKKLMMMGEMATLTQTLTDESIKSIADEYDRKIEIVSAAE	-0.0786
HMETLKLRDSGKEVQSLQELLQRQGLSAPMNGIFDEATKSSVIAFQKANGLDADGIVGYKSWETLFTAG	0.0141
HMGEKTLSEKVYDRLKELIMDGELERGTKITETSIAKMFDVSPTPVREAFRKLASDGLIEVASWKGVIVKG	-0.378
HMKIEDSNTIKLKANQAYKTHYYSEAIKLYDELLTKYEPNSEAIKLNLAHAHFKAKGFAAASKLYT	0.0472
HMASVVEQVQVSNDISLFRQQNSPYWQARFKVAGKWYTRTTKRTEQTQAAFRAAELRSEVQTKISQGIPLR	-2.56
HMGGQFVKVEVIAQIFGVTVRRVQQLTQEGVVKTTEIPGEGRRYELVPTIKTYIQYLSDKAY	-4.02
HMKKTFSKSSVMEAIFRDIPNITIPNAHEVYTLIKNISVMNKRKSITSEDIEKAYDALGLTP	-0.928

Sequence	soluble fraction (log2)
HMSDGDFLQKIAEEILAQFPDKVKEYQKGKKGLIGFFMGELMKRSKGKADPKVATRILEEILSEKNGSS	-0.0745
HMTRDAQLAALERLMDDPSPVVRKAVLKGVQAAGTEGLLWLQQLSKNQTLGPYALALLTELR	-0.72
HMVDGTPALTDLKKVSKPGRRHYTGSQEIPRVLNGLGISIVSTSKGIMTGAQARRQKVGGELLAFV	0.0345
HMRFEWFDTLTDREKEIFGLIATGFDNQQIADRLQLAEQTVRNNISTIYSKLEVKDRFEIIRLANTI	-1.35
HMDPFAYEVKVTDLAAGSSEIRTVYTEQGSFNIPSGMSGNLKIQVRSASMYDEVEPSDWYTIGEEDIN	0.0347
HMDSVPEEQLRQLALDKAKEVKRWGQPVELAKMNAHDRRIIHINLQDDPEIETRSEGEGALKSVIISLKK	0.0979
HMVSGVMAQQAIAVLVQQEDKHAPLSDQALAERLQVQGIDISRRTVAKYRQLLQIPSAATRR	-0.669
HMKVGEIIKAKREELKIPLVNFAKELDISQGYLSQIENGIKTNPNLDIILKIIHRLDIDLAMLL	-1.93
HMADWTETELAALRRAYASGTTRVSYDGKSVDYGSAEDLLSRIRTLQGAASDVAADAVAAVDA	-0.0473
HMTKGVWHTVKKGENLYRISLYYEVPQQEIKKANKIETENIVVGQKLFIPNTTKKSPIFALTP	-1.72
HMPPNRDDEHLQALRDYYAANRRIPSLQRVASLLGFSSRSAAVKLMGRLADEGFIERTADDDAWITGKRFF	-1.34
HMKLHPRDQERTRAISARGERLYAVTVGDLRRRIGEMLEWFGRQIESQEPMRVAKAARRITDFFDQVEAFT	-2.5
HMLENYEGFKQKILKLTGIDLSSYKERQMRRRIDSLIHRNNYDDYDEYFKALTQNSNLYDEFINYLTI	-0.823
HMTKDEIIIQSIIDAAKKLMQQYGLNKTTMEDIAKEAGKGKSTLYHYFKSKEEIFDQVINQEID	0.0589
HMAGTDLSERESEIAMLLLKGYPYKLIASRLYISESTVKSHVQNIYGKLGIHSRTELIEQFSAS	-0.649
HMKINKQHLAFQIFGIRAKLGLSMEQFGELLGANKSSVSGWERGTVVPSSQRLKKIAELGKISLAELLTP	-3.01
HMIDDPTAVILRLVSEKQVIRRDDVVKALSVTPQKAYRLLKTMTTGGLLTRSGARRTTVYGLPDARER	0.223
HMFPATAPQLKAVHAILGKQGISDELDKLARVNEWLVGLNKEPVAAISELDKHTTSGLIDHLQGELNE	0.297
HMNQTEKSKITHNELLKAAHSLFIEQGFNHTTITDIVTRAGYSTGIFYKHYKTKTDILVELWTNYIE	-2.27
HMGMNKEHFIIELKIYLKALNPKDQAIILAKYKALFDARVAEGETEEQVAKSLGKPRVIAEEILKEQGIE	-3.26
HMAASGTVNSGGDPLRVRADPNTSSQILTKLSDGTQVEVLEQAENGWYKIAHEGISGFVSGEYLVVH	0.0197
HMVSDISTQYQKIINEALDKQPEVKLADIVTMIKEQTSNKVQNGIVENVAKQMNGIEIIKIGQAKGVRRTT	0.0482
HMYAHTPEMEAMNELGLEPPVTLDEIKKTYKTLVKKYHPDHNKEDPEAEEKLKKVNMAYTILKVAYTEFEK	-0.246
HMNKEDIASNEKLLGLLNHMSKVLKDIDFIKDDRPMIVRKINHIFKKATLSEEEINILRGVLSAIENHS	-1.46
HMADGEWAEMQRQLTAAGLLVVGRAAQERIQRLSDISPLIEAAQRSNVVMLSERTVDEVLTLVPT	-0.225
